Results taken from IntAct's records for PubMed 17937919.

molecular target: eed_mouse Eed (UniProt Q921E6)
Sequence (Q921E6 whole entry, looked up): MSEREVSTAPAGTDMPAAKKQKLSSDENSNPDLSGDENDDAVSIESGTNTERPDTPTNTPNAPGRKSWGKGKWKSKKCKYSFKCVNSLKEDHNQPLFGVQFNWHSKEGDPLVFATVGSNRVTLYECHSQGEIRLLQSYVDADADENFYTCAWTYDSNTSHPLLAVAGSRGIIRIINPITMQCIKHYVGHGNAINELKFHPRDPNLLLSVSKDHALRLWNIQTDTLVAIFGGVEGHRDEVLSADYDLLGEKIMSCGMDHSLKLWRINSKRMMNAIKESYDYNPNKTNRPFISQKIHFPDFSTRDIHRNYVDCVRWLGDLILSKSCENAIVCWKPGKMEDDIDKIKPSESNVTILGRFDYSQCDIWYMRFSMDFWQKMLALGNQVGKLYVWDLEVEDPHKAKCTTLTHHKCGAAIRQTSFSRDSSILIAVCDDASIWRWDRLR

Sequence of Polycomb protein EED (Mus musculus), Q921E6 L246E (Q921E6 whole entry L246E): as the sequence (Q921E6 whole entry, looked up) above, with L246E counted along it

Effect of a mutation on the interaction, disrupting interaction:
Histone-lysine N-methyltransferase EZH2 (Mus musculus), Q61188-1 F42D
Histone-lysine N-methyltransferase EZH2 (Mus musculus), Q61188-1 I49E
Histone-lysine N-methyltransferase EZH2 (Mus musculus), Q61188-1 L56E
Histone-lysine N-methyltransferase EZH2 (Mus musculus), Q61188-1 P67D
Histone-lysine N-methyltransferase EZH2 (Mus musculus), Q61188-1 N45A

molecular target: Ezh2, Q61188-1
Sequence (Q61188 whole entry): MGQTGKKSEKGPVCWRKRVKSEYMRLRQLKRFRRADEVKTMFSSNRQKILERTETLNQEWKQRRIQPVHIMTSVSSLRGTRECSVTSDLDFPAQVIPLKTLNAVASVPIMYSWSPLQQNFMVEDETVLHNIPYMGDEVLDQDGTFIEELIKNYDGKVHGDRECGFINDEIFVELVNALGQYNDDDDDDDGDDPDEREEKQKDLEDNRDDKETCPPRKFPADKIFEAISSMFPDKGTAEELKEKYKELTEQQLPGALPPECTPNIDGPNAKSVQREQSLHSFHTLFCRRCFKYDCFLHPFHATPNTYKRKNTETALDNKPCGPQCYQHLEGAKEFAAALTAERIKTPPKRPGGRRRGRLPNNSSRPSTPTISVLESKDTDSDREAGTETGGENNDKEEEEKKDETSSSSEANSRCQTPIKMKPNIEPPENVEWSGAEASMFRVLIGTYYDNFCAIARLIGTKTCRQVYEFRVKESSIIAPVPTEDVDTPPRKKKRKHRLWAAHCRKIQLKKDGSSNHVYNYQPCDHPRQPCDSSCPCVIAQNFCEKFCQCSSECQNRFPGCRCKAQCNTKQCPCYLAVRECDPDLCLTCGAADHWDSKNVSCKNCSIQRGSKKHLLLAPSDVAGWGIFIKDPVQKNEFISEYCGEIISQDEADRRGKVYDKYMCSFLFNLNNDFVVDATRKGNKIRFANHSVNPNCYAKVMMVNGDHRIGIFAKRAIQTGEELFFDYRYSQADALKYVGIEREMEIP

Effect of a mutation on the interaction, disrupting interaction:
Polycomb protein EED (Mus musculus), Q921E6 L246E
